Key:
pro TGF-β1 processing = target: T1, pro TGF-β1 processing (Homo sapiens, UniProt P01137); experiment: Western blot of pro TGF-β1 conversion to LAP and mature TGF-β1 in transfected HEK293T cells; format: cell-based; conditions: for Intensity of the band corresponding to mature TGF-β1 / Precursor (pro TGF-β) band: HEK293T supernatant, anti-TGF-β1 Western-blot, emilin-1 cotransfected, peptide at 100 μM; for Intensity of the band corresponding to mature TGF-β1: FIG. 5A; for Precursor (pro TGF-β) band: FIG. 5A lanes 2 and 3
T1 construct: Flag; expressed in transfected cells; host or cells: HEK293T (A6); mouse embryo fibroblasts (A8)
T1 sequence (P01137 30-390): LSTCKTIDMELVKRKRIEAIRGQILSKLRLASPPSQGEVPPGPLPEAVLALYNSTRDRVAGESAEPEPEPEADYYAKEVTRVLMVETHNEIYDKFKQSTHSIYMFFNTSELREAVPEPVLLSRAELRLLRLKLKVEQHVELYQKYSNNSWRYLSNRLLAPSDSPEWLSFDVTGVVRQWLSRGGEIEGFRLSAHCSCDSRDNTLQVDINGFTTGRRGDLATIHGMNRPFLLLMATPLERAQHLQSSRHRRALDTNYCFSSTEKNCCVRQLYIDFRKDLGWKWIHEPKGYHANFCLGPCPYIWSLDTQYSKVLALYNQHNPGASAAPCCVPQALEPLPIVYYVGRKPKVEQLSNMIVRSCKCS
Description: (§1) • The construct for emilin 1 expression was engineered in pCS2 vector (Rupp R. A. et al., 1994, Genes Dev 8, 1311-1323) (for a physical map of the vector, see the site faculty.washington.edu/rtmoon/pcs2+.html) as described (Zanetti M. et al., 2004, Mol Cell Biol 24, 638-650); the vector used for proTGF-β expression in MEF and HEK293T cells is pCDNA3.1 (Invitrogen). Vectors containing the coding sequence for human pro TGF-β are described in Young and Murphy-Ullrich, 2004 (Young and Murphy-Ullrich, 2004, J Biol Chem 279, 38032-38039). The human pro TGF-β cDNA sequence is reported in the data bank (NP_000660; protein 000651). • The vector for Furin/SPC 1 expression is pCDNA3.1 (Invitrogen) • p15 and CAGA 12 promoter fragments are described in Jonk L. J. et al., 1998, J Biol Chem 273, 21145-21152 […]. • Constructs containing Flag sequences are described in Young G. D and Murphy-Ullrich J E, 2004, J Biol Chem 279, 38032-38039. • Constructs containing the Flag epitope (e.g. Flag-EMI-domain-GPI) were prepared as described in Chubet R G et al. Biotechniques 1996; 20(1):136-141 and detected by anti-Flag antibody (Kodak Inc.). • Constructs containing the GPI anchor were prepared as described in the Manual “Current Protocols in Cell Biology” Howard R. Petty Wayne State University, Detroit, Mich.; Juan S. Bonifacino, Mary Dasso, Joe B. Harford, Jennifer Lippincott-Schwartz, and Kenneth M. Yamada (eds.), Copyright C 2003 John Wiley & Sons, Inc. (GPI-anchor). In the construct Flag-EMI domain-GPI, the Flag sequence was inserted at the N-terminus after the signal peptide, while the GPI-anchor sequence was placed at the COOH-terminal end. • The construct emilin 1-KDEL was obtained by inserting the KDEL coding sequence described by Munro S., and Pelham, H. R., 1987, Cell 48, 899-907 upstream the emilin 1 STOP codon. • The construct containing the type II TGF-β receptor with HA epitope was described in Wrana J. L. et al., 1994, Nature 370, 341-347. • supplier of the drugs used: SP600125 (Calbiochem), SB431542 (Tocris). • Purified recombinant LAP and TGF-β1 proteins were purchased from (R&D Systems)
To verify whether emilin or its EMI domain inhibit TGF-β or its precursor, HEK293T cells were cotransfected with plasmids driving the expression of pro TGF-β1 (fused to the FLAG-domain, even though the antibody used were directed at LAP and TGF-β proteins) and emilin-1 (or EMI-domain). […] The anti-Flag antibody used was obtained from Kodak Inc; for the preparation of Flag constructs, see Younjg and Murphy-Ullrich (Young and Murphy-Ullrich, 2004).
As reported in the summary scheme above FIG. 5A, HEK293T cells were transfected with the plasmid encoding pro TGF-β1 (lane 1) and cotransfected with emilin-1 (lane 3) or treated with decanoyl-RVKR-CMK peptide (Decanoyl-Arg-Val-Lys-Arg-chloromethylketone, Alexis Corporation, Lausen, Switzerland) (lane 2) at a concentration of 100 μM. The peptide is an irreversible and competitive inhibitor of furin proprotein convertase and of other SPC family members (Proprotein Convertase); in addition, it inhibits pro-MMP2 dependent furin activation. The supernatant was then loaded on SDS-PAGE and detected by Western-blot with anti-TGF-β1 antibody. […] An increase of the precursor band in lanes 2 and 3 is […] to the decrease of TGF-β. Therefore it can be concluded that this assay detects an effect of emilin-1 on TGF-β1 processing that is similar to the effect of Furin inhibitors.

pro TGF-β1 [1] = experiment: Western blot of culture medium of MEF (-/- or +/+) transfected with Flag-proTGF-β1; format: cell-based, mouse; conditions: anti-Flag / anti-LAP, FIG. 5C
Procedure: In a subsequent experiment, Mouse Embryo Fibroblasts (MEF) derived from ko (−/−) or wild type (+/+) mice were transfected with a plasmid encoding Flag-proTGF-β1; the Furin inhibitor decanoyl-RVKR-CMK was added to the indicated samples. The culture medium was then subjected to western blotting with anti-Flag (FIG. 5C, upper inset) or anti-LAP (middle inset) antibody. […] To control the expression levels, western blot (in the lower inset) with an anti-β gal antibody was developed instead.

pro TGF-β1 [2] = experiment: CAGA12-lux luciferase reporter in HEK293T cells co-transfected with pro TGF-β1 vector; format: cell-based, human
Description: as §1
(§2) To verify how emilin or the EMI domain can contrast TGF-β1 activity independently from receptor binding, HEK293T cells were transfected with a construct coding luciferase placed under control of a TGF-β activated promoter: CAGA12-lux (Jonk et al., 1998) alone or in combination with a emilin1 expression vector (500 ng) as shown in FIG. 2B. After transfection, cells were treated (black bar) or not treated (white bar) with 5 ng/ml recombinant TGF-1 (lanes 1 and 2). Column bars from 3 to 6 report luciferase expression values in experiments with cells co-transfected with the expression vector for emilin1 (or EMI-domain or emilin1ΔEMI) alone (white bars) or in combination with the vector encoding pro TGF-β1 (black bars). Values show the mean±st. dev.
As further validation of the above observations, HEK293T cells were cotransfected with expression plasmids carrying the cDNAs shown in the summary scheme above the figure, along with CAGA12-lux and CMV-lacZ constructs, and luciferase expression levels were measured.

pro TGF-β processing = experiment: Cell-mixing experiment, responder (CAGA12-lux) and stimulator (proTGF-β) HEK293T cells; format: cell-based; conditions: emilin 1 cotransfected in S cells or only in R cells; FIG. 6A
Procedure: To determine where emilin and pro TGF-β interact (whether intracellularly or extracellularly), two types of HEK293T cells, responder (R) and stimulator (S), were prepared by transfecting the CAGA12-lux plasmid in the former and of the proTGF-β coding plasmid in the latter cells. Therefore, R cells respond to TGF-β by activating the luciferase reporter gene, while S cells produce TGF-β and can stimulate the former cells only if TGF-β is secreted. To determine where emilin-1 blocks TGF-β processing, R or S cells were cotransfected with the emilin 1 coding plasmid, and this transfection is indicated with the initial +E under the corresponding column bar in FIG. 6A.
To be able to compare the results obtained under the various conditions, all cells were cotransfected also with the CMV-lacZ vector. Mock refers to cells transfected with CMV-lacZ plasmid alone. […] Therefore, the inhibition of pro TGF-β processing by emilin 1 occurs in the extracellular compartment.

pro TGF-β = target: T2, pro TGF-β (Homo sapiens, UniProt P01137); experiment: Co-immunoprecipitation / Western blot of EMI domain or emilin1 with pro TGF-β in HEK293T cells; format: binding; conditions: HEK293T cell extracts or culture medium; anti-Flag / anti-LAP IP; FIG. 4A-4C
T2 construct: expressed in transfected cells; host or cells: HEK293T
T2 sequence (P01137 30-390): as above
Description: • The construct for emilin 1 expression was engineered in pCS2 vector (Rupp R. A. et al., 1994, Genes Dev 8, 1311-1323) (for a physical map of the vector, see the site faculty.washington.edu/rtmoon/pcs2+.html) as described (Zanetti M. et al., 2004, Mol Cell Biol 24, 638-650); the vector used for proTGF-β expression in MEF and HEK293T cells is pCDNA3.1 (Invitrogen). Vectors containing the coding sequence for human pro TGF-β are described in Young and Murphy-Ullrich, 2004 (Young and Murphy-Ullrich, 2004, J Biol Chem 279, 38032-38039). […]

mature TGF-β1 = experiment: CAGA12-lux luciferase reporter in HEK293T cells treated with recombinant TGF-β1; format: cell-based; conditions: 5 ng/ml recombinant TGF-β1, expression vector 500 ng, FIG. 2B
Procedure: as §2

Interaction with pro TGF-β (co-immunoprecipitation) (pro TGF-β)	Molecule	Intensity of the band corresponding to mature TGF-β1 (pro TGF-β1 processing)	Precursor (pro TGF-β) band (pro TGF-β1 processing)	pro TGF-β1 levels in culture medium (pro TGF-β1 [1])	Conversion of pro TGF-β1 to LAP and mature TGF-β1 (band intensity) (pro TGF-β1 processing; HEK293T cotransfected, cell extracts anti-LAP, supernatants anti-TGF-β1, FIG. 4D)	Luciferase expression stimulated by transfected pro TGF-β (pro TGF-β1 [2]; CAGA12-lux and CMV-lacZ, FIG. 6C)	Effect on luciferase expression induced by pro TGF-β1 (pro TGF-β1 [2]; CAGA12-lux, co-transfection with pro TGF-β1 vector, FIG. 2B, 2C)	Activation of CAGA12-lux reporter on mixing R and S cells (pro TGF-β processing)	Effect on luciferase expression induced by mature TGF-β (mature TGF-β1)
	Decanoyl-Arg-Val-Lys-Arg-chloromethylketone [decanoyl-RVKR-CMK, reference compound]	decreases	increase	results in increased pro TGF-β1 levels					
co-precipitates	emilin-1: emilin family extracellular matrix protein carrying an EMI domain, GenBank NP—008977; expressed from pCS2 vector by transfection (protein) ASYPPRGFSLYTGSSGALSPGGPQAQIAPRPASRHRNWCAYVVTRTVSCVLEDGVETYVKYQPCAWGQPQCPQSIMYRRFLRPRYRVAYKTVTDMEWRCCQGYGGDDCAESPAPALGPASSTPRPLARPARPNLSGSSAGSPLSGLGGEGPGESEKVQQLEEQVQSLTKELQGLRGVLQGLSGRLAEDVQRAVETAFNGRQQPADAAARPGVHETLNEIQHQLQLLDTRVSTHDQELGHLNNHHGGSSSSGGSRAPAPASAPPGPSEELLRQLEQRLQESCSVCLAGLDGFRRQQQEDRERLRAMEKLLASVEERQRHLAGLAVGRRPPQECCSPELGRRLAELERRLDVVAGSVTVLSGRRGTELGGAAGQGGHPPGYTSLASRLSRLEDRFNSTLGPSEEQEESWPGAPGGLSHWLPAARGRLEQLGGLLANVSGELGGRLDLLEEQVAGAMQACGQLCSGAPGEQDSQVSEILSALERRVLDSEGQLRLVGSGLHTVEAAGEARQATLEGLQEVVGRLQDRVDAQDETAAEFTLRLNLTAARLGQLEGLLQAHGDEGCGACGGVQEELGRLRDGVERCSCPLLPPRGPGAGPGVGGPSRGPLDGFSVFGGSSGSALQALQGELSEVILSFSSLNDSLNELQTTVEGQGADLADLGATKDRIISEINRLQQEATEHATESEERFRGLEEGQAQAGQCPSLEGRLGRLEGVCERLDTVAGGLQGLREGLSRHVAGLWAGLRETNTTSQMQAALLEKLVGGQAGLGRRLGALNSSLQLLEDRLHQLSLKDLTGPAGEAGPPGPPGLQGPPGPAGPPGSPGKDGQEGPIGPPGPQGEQGVEGAPAAPVPQVAFSAALSLPRSEPGTVPFDRVLLNDGGYYDPETGVFTAPLAGRYLLSAVLTGHRHEKVEAVLSRSNQGVARVDSGGYEPEGLENKPVAESQPSPGTLGVFSLILPLQAGDTVCVDLVMGQLAHSEEPLTIFSGALLYGDPELEHA	decreases	increase		inhibit the conversion of pro TGF-β1	inhibits the stimulating action of transfected pro TGF-β	inhibits pro TGF-β	inhibits activation of the reporter construct	does not antagonize mature TGF-β
